Where a chain is given by its changes, count along the chain named. Where no end group is shown, it is not given here.
Key:
[1] = biological target: T1, human FPRL2 (Homo sapiens, UniProt P25089, D338H/G94A/S211T); experiment: Intracellular cAMP production inhibition assay (AlphaScreen) in human FPRL2-expressing CHO cells; assay type: cell-based; details: summary statement in disclosure of invention
T1 construct: expressed in transfected cells; host or cells: CHO cells
T1 sequence (P25089 1-353 G94A/S211T/D338H): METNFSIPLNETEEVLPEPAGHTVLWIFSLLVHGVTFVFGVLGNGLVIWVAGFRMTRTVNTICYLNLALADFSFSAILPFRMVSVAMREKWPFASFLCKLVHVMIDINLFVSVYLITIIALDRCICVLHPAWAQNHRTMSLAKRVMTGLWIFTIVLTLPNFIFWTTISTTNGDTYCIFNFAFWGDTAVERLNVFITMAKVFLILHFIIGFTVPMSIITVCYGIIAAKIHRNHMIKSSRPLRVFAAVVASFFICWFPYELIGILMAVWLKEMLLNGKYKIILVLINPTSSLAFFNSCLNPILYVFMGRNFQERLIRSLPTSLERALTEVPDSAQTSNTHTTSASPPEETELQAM
Procedure: (§1) Orphan G protein-coupled receptor protein-expressing CHO cells were inoculated in one flask of 150 cm^2 at 1×10^7 cells, followed by incubation at 37° C. in a CO2 incubator. Subsequently to the incubation, the cells were detached using 0.5 mM EDTA/PBS, and washed with PBS. The cells were then suspended at a density of 1×10^7 cells/ml in Buffer 1 (HBSS+0.1% BSA, 25 mM HEPES, pH 7.3, 0.5 mM IBMX). This cell suspension, 440 μl, was mixed with 22 μl of anti-cAMP acceptor beads of AlphaScreen cAMP Assay Kit (Perkin Elmer) and 638 μl of Buffer 1. The resulting mixture was dispensed on a white 96-well plate (Costar) by 10 μl each. Next, 10 μl each of a Buffer 1 dilution or solution of the compound to be screened was added to each well. In this case, the cell suspension was not given in one row of the plate but only a mixture of 9 μl of anti-cAMP acceptor beads and 441 μl of Buffer 1 was charged and instead of the compound, a serial dilution of cAMP was added thereto. This was made standard. The plate in which a mixture of the cell suspension and the compound was charged was kept shaken at room temperature for 30 minutes. Thirty minutes after, a mixture of 20 μl of Biotinyl camp and 82 μl of Streptavin donor beads of AlphaScreen cAMP Assay kit with 40 ml of Buffer 2 (HBSS+0.1% BSA, 25 mM HEPES, pH 7.3, 1.5% Tween 20) was added to all wells of the plate by 30 μl each. The plate was kept shaken at room temperature for 3 hours and the fluorescence intensity was measured by Fusion a (Perkin Elmer). Using the cAMP standard charged in the plate, the cAMP level in each well was calculated. In addition to human FPRL2-expressing CHO cells, three orphan G protein-coupled receptor protein-expressed CHO cells were added and the resulting compound library was provided for screening using the assay system described above.

[2] = biological target: T2, human FPRL2 (Homo sapiens, UniProt P25089); experiment: as above; assay type: cell-based; details: human FPRL2-expressing CHO cells; reactivity also examined for human FPRL1, human FPR1 and mock CHO (FIGS. 1-4)
T2 construct: expressed in transfected cells; host or cells: CHO cells
T2 sequence (P25089 1-353 G94A/S211T/D338H): T1 sequence (P25089 1-353 G94A/S211T/D338H)
Procedure: as §1

[3] = biological target: T3, FPRL2 (Homo sapiens, UniProt P25089); details: J Biol. Chem., Jun. 15, 2001; 276 (24): 21585-93; cited from earlier work
T3 sequence (P25089 1-353): T1 sequence (P25089 1-353 G94A/S211T/D338H) with A94G, T211S, H338D

ligand activity on FPRL2 [1] | Substance | intracellular cAMP production inhibition activity [2] | agonist for FPRL2 (reported) [3]
exhibit a ligand activity on FPRL2 | Ala-Arg-Pro-Gly-Tyr-Leu-Ala-Phe-Pro-Arg-Met-NH2 (ARPGYLAFPRM-NH2; listed as Aplysia sp.) [SCPA] | exhibited the intracellular cAMP production inhibition activity specific to human FPRL2 | –
exhibit a ligand activity on FPRL2 | Gly-Asn-His-Trp-Ala-Val-Gly-His-Leu-Met-NH2 (GNHWAVGHLM-NH2; listed as Homo sapiens) [hNeuromedin C] | exhibited the intracellular cAMP production inhibition activity specific to human FPRL2 | –
exhibit a ligand activity on FPRL2 | His-Trp-Ala-Trp-Phe-Lys-NH2 (HWAWFK-NH2; not fully specified (residues 2, 5); printed as His-Trp-Ala-Trp-Phe-Lys-NH2) [GHRP-6] | exhibited the intracellular cAMP production inhibition activity specific to human FPRL2 | –
exhibit a ligand activity on FPRL2 | Met-Pro-His-Ser-Phe-Ala-Asn-Leu-Pro-Leu-Arg-Phe-NH2 (MPHSFANLPLRF-NH2; listed as Sus scrofa) [hRFRP-1-12] | exhibited the intracellular cAMP production inhibition activity specific to human FPRL2 | –
– | Trp-Lys-Tyr-Met-Val-Met-NH2 | – | agonist for FPRL2

Reference: patent US7517661B2, “Methods of screening for ligands for FPRL2” (Takeda Pharmaceutical Company Limited, priority 2003, dated 2009)
